Substrate in the data set: CC(C)=CCC/C(C)=C/CC/C(C)=C/CC[C@@](C)(O)CCC1=C(C)C(=O)C(C)=C(C)C1=O
Briefly: Kinetic parameters of EPI-743 with SQOR. The class given is biochemical, human. The following applies: other: 200 micromolar Na2S, 2 mM Na2SO3, pH 7.5, reduced oxygen (<1000 ppm), 30.0 °C. The text has this: Human sulfide:quinone oxidoreductase (SQOR) protein was expressed and purified according to the method described in Jackson, M.R., et al. “Human Sulfide:Quinone Oxidoreductase Catalyzes the First Step in Hydrogen Sulfide Metabolism and Produces a Sulfane Sulfur Metabolite”, Biochemistry, Publication Date (Web): 1 Aug 2012, with the following exceptions: (1) a chaperone plasmid set (Plasmid pG-KJE8, plasmid #1 in catalog no. 3340) from Takara Bio Inc. (Japan) was used; (2) DHPC detergent was replaced with the following: 1.0% (w/v) CHAPS, 0.5% deoxycholate, or 1.0% octylmaltoside. The detergent was used in the initial lysis buffer, and removed in the IMAC purification step (no detergents in the storage conditions); (3) the ion-exchange (Q-sepharose) chromatography step was not used in the purification. The final SQOR protein contained amino acids 42-450 of the human SQOR protein.
Target protein was purified on IMAC to ≥90% purity (on Ni resin). Target protein was stored in 25 mM Tris pH 7.5, 150mM NaCl, 2 mM DTT 20% glycerol.
EPI-743 was assayed for activity with SQOR. […]
Briefly, SQOR enzyme, compound, inorganic sulfide (200 micromolar Na2S) and a sulfur acceptor (2 mM Na2SO3) were brought together. The reduction of the quinone substrate to hydroquinone product in the presence of sulfide ion, sulfur acceptor and SQOR enzyme was monitored by the decrease in quinone concentration over time, by observing the UV signal diagnostic for the specific quinone (See Table 3):
General assay conditions: Assays were performed in 100 mM Tris, pH 7.5, 0.5 mM EDTA. SQOR was included at approximately 5 nM, as estimated by total protein concentration determined by Bradford assay with BSA as standard and the estimated purity of SQOR from SDS-PAGE. […]
The kinetic parameters of compounds with SQOR were determined by varying the concentration of the compound over a suitable range and interrogating the impact of that variation on the enzymatic rate.
The parameters kcat and Km, for example, can be determined by nonlinear fitting of the rate data to the Michaelis-Menten equation: […]

B1: Human sulfide:quinone oxidoreductase (SQOR) (Homo sapiens) (protein)
chain: NHYEVLVLGGGSGGITMAARMKRKVGAENVAIVEPSERHFYQPIWTLVGAGAKQLSSSGRPTASVIPSGVEWIKARVTELNPDKNCIHTDDDEKISYRYLIIALGIQLDYEKIKGLPEGFAHPKIGSNYSVKTVEKTWKALQDFKEGNAIFTFPNTPVKCAGAPQKIMYLSEAYFRKTGKRSKANIIFNTSLGAIFGVKKYADALQEIIQERNLTVNYKKNLIEVRADKQEAVFENLDKPGETQVISYEMLHVTPPMSPPDVLKTSPVADAAGWVDVDKETLQHRRYPNVFGIGDCTNLPTSKTAAAVAAQSGILDRTISVIMKNQTPTKKYDGYTSCPLVTGYNRVILAEFDYKAEPLETFPFDQSKERLSMYLMKADLMPFLYWNMMLRGYWGGPAFLRKLFHLGMS
notes: The final SQOR protein contained amino acids 42-450 of the human SQOR protein; His tag (inferred from IMAC purification on Ni resin); made in house; E. coli is inferred from the Takara chaperone plasmid pG-KJE8 and from own knowledge of the cited Jackson et al. 2012 method
For the protein B1, the Km (in general, the substrate concentration at which the rate is half of its maximum) is 200 µM; the kcat (in general, the number of substrate molecules converted per active site and unit of time at saturation) amounted to 76 s⁻¹; the kcat/Km (usually the second-order rate constant that governs catalysis at low substrate concentration) was 400000 M⁻¹ s⁻¹.
